According to patent US8932558B2, “Multi-subunit biological complexes for treatment of plaque-associated diseases” (Plaxgen Inc, priority 2007, dated 2015):

Tests used:
[1] = tested on: iron loaded abeta42 aggregates mixed with CE proteins; assay: Proteolysis of amyloid plaque complexes assembled on iron loaded abeta42 aggregates; assay type: biochemical; conditions: 20 ng protease, 37° C., 1 hr
Method: This example illustrates the use of the invention to evaluate the proteolytic degradation of the amyloid complexes. For example, iron loaded abeta42 aggregates are mixed with CE proteins, and the resulting template complexes are treated with five different serine proteases. More specifically, nine independent reactions are carried out with each containing 5.0 μg of the iron-loaded aggregates of abeta42 and 6.0 μg of the CE proteins. After incubation and washing, the complexes are suspended in 50 μl of PBS. The nine complexes are sub-divided into two groups, with six individual complexes comprising Group I and three complexes comprising Group II. In order to interrogate the role of the plasminogen (PLG) activation system, which is implicated in the catabolism of amyloid peptides as well as the pathobiology of amyloid diseases (Melchor J P et al, 2003; Van Nostrand W E et al, 1999; Kranenburg O, 2005), the Group II complexes are subjected to another cycle of binding with both PLG (0.5 μg) and BSA (0.5 μg) proteins. After binding and washing, the PLG and BSA bound plaques complexes are suspended in 50 μl of PBS.
For proteolysis analysis, five of the six Group I template complexes are incubated with 20 ng of each protease (plasnin, chymotrypsin, trypsin, proteinase K and urokinase). The remaining complex is used as a control without protease treatment. […]

[2] = tested on: iron loaded prion or abeta40 templates; assay type: binding
[3] = target: iron-loaded abeta42 templates (Homo sapiens, UniProt P05067); assay: Binding of proteins to iron-loaded abeta42 templates; conditions: SDS-PAGE
From the text: FIG. 46 illustrates an example involving the identification of proteins that bind to iron-loaded abeta42 templates. The iron-loaded abeta42 templates are combined with known and unknown cell extracts (CE) and subjected to CPA, as described herein. To determine which proteins successfully bind the templates, the final template complexes are suspended in denaturing sample buffer, boiled, and loaded into SDS-PAGE gel. The gels are then stained with coomassie blue or silver stain in order to visualize the binding proteins. […] In the negative control, no significant binding is observed when the proteins are incubated in the absence of the templates.
In experiments such as these, known and unknown cell extract proteins that are used for the complex formation with the aggregates are diluted in PBS to a 1 mg/ml concentration and stored at −70° C. as 50 μl aliquots. These samples are thawed on ice and centrifuged (13000 rpm, 15 min, 4° C.) to remove any precipitation. The supernatant containing soluble proteins is used to form complexes with the aggregates. Various proteins are screened against the iron loaded abeta42 aggregates for examining their binding. […] The proteins in the gels are detected using coomassie blue or silver stain (Owl silver stain, Pierce, Ill., USA). […]

Chain of iron-loaded abeta42 templates (P05067 672-713 limits assumed): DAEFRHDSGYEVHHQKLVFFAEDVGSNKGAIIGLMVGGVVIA

Row | Molecule | Degradation of proteins bound to the aggregates [1] | also measured
1 | plasmin: serine protease (protein, UniProt P00747 20-580; P00747 581-810, looked up, Plasmin, serine protease) Plasmin heavy chain A: EPLDDYVNTQGASLFSVTKKQLGAGSIEECAAKCEEDEEFTCRAFQYHSKEQQCVIMAENRKSSIIIRMRDVVLFEKKVYLSECKTGNGKNYRGTMSKTKNGITCQKWSSTSPHRPRFSPATHPSEGLEENYCRNPDNDPQGPWCYTTDPEKRYDYCDILECEEECMHCSGENYDGKISKTMSGLECQAWDSQSPHAHGYIPSKFPNKNLKKNYCRNPDRELRPWCFTTDPNKRWELCDIPRCTTPPPSSGPTYQCLKGTGENYRGNVAVTVSGHTCQHWSAQTPHTHNRTPENFPCKNLDENYCRNPDGKRAPWCHTTNSQVRWEYCKIPSCDSSPVSTEQLAPTAPPELTPVVQDCYHGDGQSYRGTSSTTTTGKKCQSWSSMTPHRHQKTPENYPNAGLTMNYCRNPDADKGPWCFTTDPSVRWEYCNLKKCSGTEASVVAPPPVVLLPDVETPSEEDCMFGNGKGYRGKRATTVTGTPCQDWAAQEPHRHSIFTPETNPRAGLEKNYCRNPDGDVGGPWCYTTNPRKLYDYCDVPQCAAPSFDCGKPQVEPKKCPGR Plasmin light chain B: VVGGCVAHPHSWPWQVSLRTRFGMHFCGGTLISPEWVLTAAHCLEKSPRPSSYKVILGAHQEVNLEPHVQEIEVSRLFLEPTRKDIALLKLSSPAVITDKVIPACLPSPNYVVADRTECFITGWGETQGTFGAGLLKEAQLPVIENKVCNRYEFLNGRVQSTELCAGHLAGGTDSCQGDSGGPLVCFEKDKYILQGVTSWGLGCARPNKPGVYVRVSRFVTWIEGVMRNN | degraded | 
2 | proteinase K: serine protease (protein, UniProt P06873 106-384, looked up) Proteinase K: AAQTNAPWGLARISSTSPGTSTYYYDESAGQGSCVYVIDTGIEASHPEFEGRAQMVKTYYYSSRDGNGHGTHCAGTVGSRTYGVAKKTQLFGVKVLDDNGSGQYSTIIAGMDFVASDKNNRNCPKGVVASLSLGGGYSSSVNSAAARLQSSGVMVAVAAGNNNADARNYSPASEPSVCTVGASDRYDRRSSFSNYGSVLDIFGPGTSILSTWIGGSTRSISGTSMATPHVAGLAAYLMTLGKTTAASACRYIADTANKGDLSNIPFGTVNLLAYNNYQA | degraded | 
3 | STI: soybean trypsin inhibitor (protein, UniProt P01070 25-205, looked up) Trypsin inhibitor A: DFVLDNEGNPLENGGTYYILSDITAFGGIRAAPTGNERCPLTVVQSRNELDKGIGTIISSPYRIRFIAEGHPLSLKFDSFAVIMLCVGIPTEWSVVEDLPEGPAVKIGENKDAMDGWFRLERVSDDEFNNYKLVFCPQQAEDDKCGDIGISIDHDDGTRRLVVSKNKPLVVQFQKLDKESL |  | Binding with iron loaded prion or abeta40 templates [2]: no detectable binding
4 | chicken ovalbumin: chicken ovalbumin (protein, UniProt P01012 2-386, looked up) Ovalbumin: GSIGAASMEFCFDVFKELKVHHANENIFYCPIAIMSALAMVYLGAKDSTRTQINKVVRFDKLPGFGDSIEAQCGTSVNVHSSLRDILNQITKPNDVYSFSLASRLYAEERYPILPEYLQCVKELYRGGLEPINFQTAADQARELINSWVESQTNGIIRNVLQPSSVDSQTAMVLVNAIVFKGLWEKAFKDEDTQAMPFRVTEQESKPVQMMYQIGLFRVASMASEKMKILELPFASGTMSMLVLLPDEVSGLEQLESIINFEKLTEWTSSNVMEERKIKVYLPRMKMEEKYNLTSVLMAMGITDVFSSSANLSGISSAESLKISQAVHAAHAEINEAGREVVGSAEAGVDAASVSEEFRADHPFLFCIKHIATNAVLFFGRCVSP |  | Binding with iron-loaded abeta42 templates [3]: no detectable binding
